Reference: article PMC8183418
Read-outs that look alike come from different tables or passages of the source.

Legend:
ISG20 [1] = biological target: T1, ISG20 (UniProt Q96AZ6 1-181); assay: EMSA
ISG20 [2] = biological target: T1, ISG20; assay: EMSA; remark: listed apart in the source

T1 sequence (Q96AZ6 whole entry): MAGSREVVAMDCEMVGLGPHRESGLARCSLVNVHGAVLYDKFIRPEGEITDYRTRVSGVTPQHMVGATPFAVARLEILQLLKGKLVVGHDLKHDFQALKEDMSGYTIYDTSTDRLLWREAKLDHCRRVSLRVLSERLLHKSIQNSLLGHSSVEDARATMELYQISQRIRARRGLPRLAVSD

| Binder | binding result (ISG20 [1]) | binding result (ISG20 [2]) |
| --- | --- | --- |
| GGTUGTUUGUAGGATTUAGUGUUG (ssDNA, all deoxycytidines replaced by deoxyuridine; U = dU) [035: dU-containing (-) ssDNA] | binds | – |
| CGGCGCTGAATCCTGCGGACGACC (ssDNA) [036: (+) ssDNA] | – | binds |
| GGTCGTCCGCAGGATTCAGCGCCG (ssDNA) [033: (-) ssDNA] | – | binds |
